From the supplement of paper PMC9112550, “Optimization of the antimicrobial peptide Bac7 by deep mutational scanning” (BMC Biology, 2022) come the findings set out here.
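Further: peptides expressed intracellularly from a pBAD plasmid library in pooled LB shake-flask culture, induced with 0.3% L-arabinose, DNA abundance read by NGS, three biological replicates, DESeq2 with apeglm shrinkage.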

The test system of this series is Escherichia coli TOP10. As to the kind of experiment: shrunken log2 fold change of peptide-encoding DNA abundance (4.5 h post-induction vs induction); higher = less antimicrobial activity (less host growth inhibition). As to conditions: time post-induction: 4.5 h; library: site-saturation at positions 5, 18, 19, 20.
In the case of RRIRARPPRLPRPRPRPFLEPRP, the “shrunken log2 fold change” value is -0.219.
Take RRIRMRPPRLPRPRPRPGYMPRP: the “shrunken log2 fold change” value amounted to 0.0502.
For the sequence RRIRWRPPRLPRPRPRPWIRPRP, the “shrunken log2 fold change” value was -0.124.
The same measure for RRIRSRPPRLPRPRPRPYCAPRP: -0.698.
Take RRIRARPPRLPRPRPRPYIAPRP: the “shrunken log2 fold change” value is -0.438.
In the case of RRIRMRPPRLPRPRPRPVIFPRP, the “shrunken log2 fold change” value is -0.237.
In the case of RRIRARPPRLPRPRPRPPFSPRP, the “shrunken log2 fold change” value worked out at 0.137.
The same measure for RRIRPRPPRLPRPRPRPTYSPRP: -0.104; for RRIRARPPRLPRPRPRPRDEPRP: 1.06.
The same measure for RRIRFRPPRLPRPRPRPSANPRP: -0.395.
Take RRIRWRPPRLPRPRPRPCVYPRP: the “shrunken log2 fold change” value was -0.00208.
In the case of RRIRSRPPRLPRPRPRPPRDPRP, the “shrunken log2 fold change” value amounted to 1.34.
With RRIRWRPPRLPRPRPRPGTQPRP, the “shrunken log2 fold change” value turned out to be 0.216.
As to RRIRARPPRLPRPRPRPQWLPRP, the “shrunken log2 fold change” value stood at 0.144.
As for RRIRDRPPRLPRPRPRPSYPPRP, the figure is -0.2; as for RRIRGRPPRLPRPRPRPVTMPRP, 0.396.
As for RRIRKRPPRLPRPRPRPQRHPRP, the figure is 1.73; as for RRIRCRPPRLPRPRPRPMKGPRP, 0.0113.
RRIRLRPPRLPRPRPRPGQLPRP: the “shrunken log2 fold change” value was -0.0554.
In the case of RRIRKRPPRLPRPRPRPPMIPRP, the “shrunken log2 fold change” value was -0.0795.
For the sequence RRIRVRPPRLPRPRPRPEIKPRP, the “shrunken log2 fold change” value is -0.107.
For the sequence RRIRVRPPRLPRPRPRPMVGPRP, the “shrunken log2 fold change” value turned out to be 0.0148.
RRIRFRPPRLPRPRPRPGYVPRP: the “shrunken log2 fold change” value was -0.116.
Consider RRIRRRPPRLPRPRPRPKTVPRP, for which the “shrunken log2 fold change” value was determined as 0.233.
RRIRNRPPRLPRPRPRPACCPRP: the “shrunken log2 fold change” value is 0.236.
As for RRIRVRPPRLPRPRPRPTQMPRP, the figure is 0.19.
Regarding RRIRQRPPRLPRPRPRPLWYPRP, the “shrunken log2 fold change” value is -0.367.
As to RRIRGRPPRLPRPRPRPHDHPRP, the “shrunken log2 fold change” value was -0.027.
For the sequence RRIRQRPPRLPRPRPRPNFIPRP, the “shrunken log2 fold change” value is -0.402.
Take RRIRMRPPRLPRPRPRPWVCPRP: the “shrunken log2 fold change” value was determined as 0.154.
As for RRIRGRPPRLPRPRPRPGHKPRP, the figure is 0.173; as for RRIRIRPPRLPRPRPRPGEDPRP, 0.00101; as for RRIRTRPPRLPRPRPRPFVTPRP, -0.298.
Regarding RRIRNRPPRLPRPRPRPAKNPRP, the “shrunken log2 fold change” value is 0.0221.
The same measure for RRIRNRPPRLPRPRPRPQIAPRP: -0.155.
Consider RRIRCRPPRLPRPRPRPGGHPRP, for which the “shrunken log2 fold change” value was determined as 0.286.
For RRIRCRPPRLPRPRPRPQNRPRP, the “shrunken log2 fold change” value was -0.111.
Take RRIRVRPPRLPRPRPRPVEHPRP: the “shrunken log2 fold change” value was 0.00181.
Regarding RRIRDRPPRLPRPRPRPAHAPRP, the “shrunken log2 fold change” value came to 0.0741.
On to RRIRTRPPRLPRPRPRPHIWPRP, for which the “shrunken log2 fold change” value is -0.103.
Take RRIRLRPPRLPRPRPRPMYMPRP: the “shrunken log2 fold change” value is -0.295.
Regarding RRIRKRPPRLPRPRPRPCRRPRP, the “shrunken log2 fold change” value stood at 0.112.
As for RRIRVRPPRLPRPRPRPCVCPRP, the “shrunken log2 fold change” value was -0.0618.
Consider RRIRWRPPRLPRPRPRPGASPRP, for which the “shrunken log2 fold change” value stood at 0.793.
Regarding RRIRTRPPRLPRPRPRPWCGPRP, the “shrunken log2 fold change” value is -0.0198.
The same measure for RRIRGRPPRLPRPRPRPEMMPRP: 1.3; for RRIRLRPPRLPRPRPRPLLMPRP: -0.136; for RRIRARPPRLPRPRPRPFTVPRP: -0.253.
Take RRIRPRPPRLPRPRPRPPDHPRP: the “shrunken log2 fold change” value came to 0.182.
As to RRIRFRPPRLPRPRPRPRYIPRP, the “shrunken log2 fold change” value is -0.392.
Regarding RRIRPRPPRLPRPRPRPHHIPRP, the “shrunken log2 fold change” value was -0.544.
The same measure for RRIRQRPPRLPRPRPRPAMHPRP: -0.125; for RRIRLRPPRLPRPRPRPRSFPRP: -0.107.
As to RRIRQRPPRLPRPRPRPGYDPRP, the “shrunken log2 fold change” value is -0.0645.
Take RRIRMRPPRLPRPRPRPQNGPRP: the “shrunken log2 fold change” value turned out to be 0.0258.
With RRIRGRPPRLPRPRPRPLFFPRP, the “shrunken log2 fold change” value amounted to 0.415.
As for RRIRPRPPRLPRPRPRPNLRPRP, the figure is 0.197.
On to RRIRMRPPRLPRPRPRPGNHPRP, for which the “shrunken log2 fold change” value is -0.0526.
On to RRIRDRPPRLPRPRPRPCSIPRP, for which the “shrunken log2 fold change” value was -0.0309.
For RRIRARPPRLPRPRPRPHAVPRP, the “shrunken log2 fold change” value turned out to be 0.123.
On to RRIRQRPPRLPRPRPRPKDHPRP, for which the “shrunken log2 fold change” value was -0.185.
As to RRIRARPPRLPRPRPRPMQIPRP, the “shrunken log2 fold change” value amounted to 0.446.
Turning to RRIRPRPPRLPRPRPRPKSGPRP, the “shrunken log2 fold change” value stood at 0.356.
Consider RRIRSRPPRLPRPRPRPDSGPRP, for which the “shrunken log2 fold change” value is -0.02.
In the case of RRIRSRPPRLPRPRPRPVMRPRP, the “shrunken log2 fold change” value was determined as 0.594.
The same measure for RRIRVRPPRLPRPRPRPENTPRP: -0.0389; for RRIRDRPPRLPRPRPRPVPNPRP: -0.0123; for RRIRGRPPRLPRPRPRPHSSPRP: -0.144.
Regarding RRIRRRPPRLPRPRPRPVRAPRP, the “shrunken log2 fold change” value stood at 0.935.
The same measure for RRIRVRPPRLPRPRPRPYMHPRP: -0.3; for RRIRTRPPRLPRPRPRPNTIPRP: -0.596; for RRIRKRPPRLPRPRPRPADEPRP: 0.19.
RRIRSRPPRLPRPRPRPPCAPRP: the “shrunken log2 fold change” value was 0.497.
Consider RRIRVRPPRLPRPRPRPLSGPRP, for which the “shrunken log2 fold change” value was determined as 0.179.
Consider RRIRHRPPRLPRPRPRPDASPRP, for which the “shrunken log2 fold change” value was 0.221.
As for RRIRMRPPRLPRPRPRPHQPPRP, the “shrunken log2 fold change” value was determined as 0.0274.
The same measure for RRIRTRPPRLPRPRPRPYTIPRP: -1.21; for RRIRHRPPRLPRPRPRPHQLPRP: -0.196; for RRIRARPPRLPRPRPRPTLPPRP: 0.263.
As for RRIRFRPPRLPRPRPRPYNLPRP, the figure is -0.322.
With RRIRQRPPRLPRPRPRPNDWPRP, the “shrunken log2 fold change” value is 0.142.
With RRIRARPPRLPRPRPRPYAIPRP, the “shrunken log2 fold change” value was determined as 2.12.
On to RRIRQRPPRLPRPRPRPSARPRP, for which the “shrunken log2 fold change” value is -0.00609.
RRIRKRPPRLPRPRPRPMEQPRP: the “shrunken log2 fold change” value came out at 0.033.
RRIRCRPPRLPRPRPRPAFNPRP: the “shrunken log2 fold change” value was -0.23.
On to RRIRDRPPRLPRPRPRPPEGPRP, for which the “shrunken log2 fold change” value amounted to 0.76.
RRIRPRPPRLPRPRPRPGKHPRP: the “shrunken log2 fold change” value is -0.141.
For RRIRHRPPRLPRPRPRPDMTPRP, the “shrunken log2 fold change” value was -0.06.
For the sequence RRIRFRPPRLPRPRPRPPLKPRP, the “shrunken log2 fold change” value stood at 0.266.
As for RRIRWRPPRLPRPRPRPEFAPRP, the figure is 1.02; as for RRIRIRPPRLPRPRPRPMMWPRP, -0.00731; as for RRIRCRPPRLPRPRPRPSQLPRP, -0.357.
As for RRIRNRPPRLPRPRPRPEAYPRP, the figure is 0.0274.
Regarding RRIRARPPRLPRPRPRPSGVPRP, the “shrunken log2 fold change” value is -0.136.
As for RRIRSRPPRLPRPRPRPPYTPRP, the “shrunken log2 fold change” value is -0.395.
On to RRIRCRPPRLPRPRPRPCVSPRP, for which the “shrunken log2 fold change” value is -0.0805.
RRIRWRPPRLPRPRPRPDQIPRP: the “shrunken log2 fold change” value stood at 0.134.
As for RRIRYRPPRLPRPRPRPLPAPRP, the figure is -0.165.
For the sequence RRIRFRPPRLPRPRPRPHQTPRP, the “shrunken log2 fold change” value was determined as 0.0857.
As for RRIRRRPPRLPRPRPRPITFPRP, the figure is 0.058.
RRIRYRPPRLPRPRPRPVEQPRP: the “shrunken log2 fold change” value is -0.191.
The same measure for RRIRERPPRLPRPRPRPLFHPRP: -0.367; for RRIRKRPPRLPRPRPRPGMPPRP: 0.625.
As for RRIRFRPPRLPRPRPRPLTMPRP, the figure is -0.396; as for RRIRIRPPRLPRPRPRPNHHPRP, -0.868; as for RRIRDRPPRLPRPRPRPIYVPRP, -0.0326.
Turning to RRIRDRPPRLPRPRPRPNCDPRP, the “shrunken log2 fold change” value is -0.144.
Take RRIRIRPPRLPRPRPRPHNNPRP: the “shrunken log2 fold change” value is -0.313.
As to RRIRVRPPRLPRPRPRPYRKPRP, the “shrunken log2 fold change” value was -0.259.
For the sequence RRIRRRPPRLPRPRPRPTYMPRP, the “shrunken log2 fold change” value is -0.242.
As for RRIRERPPRLPRPRPRPMPPPRP, the “shrunken log2 fold change” value worked out at 0.197.
On to RRIRPRPPRLPRPRPRPHMCPRP, for which the “shrunken log2 fold change” value is -0.082.
RRIRPRPPRLPRPRPRPANNPRP: the “shrunken log2 fold change” value is -0.353.
Consider RRIRHRPPRLPRPRPRPNVQPRP, for which the “shrunken log2 fold change” value was -1.87.
As for RRIRYRPPRLPRPRPRPPFSPRP, the “shrunken log2 fold change” value was -0.285.
For RRIRNRPPRLPRPRPRPVKTPRP, the “shrunken log2 fold change” value is -0.0264.
The same measure for RRIRWRPPRLPRPRPRPIDPPRP: -0.193; for RRIRHRPPRLPRPRPRPVHQPRP: 0.0507; for RRIRQRPPRLPRPRPRPSRGPRP: 0.269.
For the sequence RRIRCRPPRLPRPRPRPMFNPRP, the “shrunken log2 fold change” value was -0.848.
The same measure for RRIRARPPRLPRPRPRPTYEPRP: 0.179; for RRIRSRPPRLPRPRPRPFVKPRP: -0.222; for RRIRYRPPRLPRPRPRPDVMPRP: 0.0199.
Take RRIRERPPRLPRPRPRPYCMPRP: the “shrunken log2 fold change” value was -1.06.
Consider RRIRARPPRLPRPRPRPDISPRP, for which the “shrunken log2 fold change” value came to 0.277.
